In publication PMC9057628:

Experiments:
[1] = target: recombinant full-length human TTRV122I with N-terminal AviTag (human) (UniProt P02766); assay: SEC; time series: TTR in 1M urea pH 7.6 at room temperature on a rotating platform for 1 hour to 7 days; oligomers between 200 and 600 kDa; also with 100 uM H2O2 or 5 mM DTT
[2] = target: recombinant full-length human TTRWT with N-terminal AviTag (human) (UniProt P02766); assay: as above

stoichiometry N (protein subunits) [1] | stoichiometry N (protein subunits) [2] | Substance
15 | – | recombinant full-length human TTRV122I with N-terminal AviTag (from UniProt P02766 21-147) (natural protein)
– | 10 | recombinant full-length human TTRWT with N-terminal AviTag (from UniProt P02766 21-147) (natural protein)
